Laboratory results as given in PMC8338886 (Clinical Cancer Research, 2021).
Where a chain is given by its changes, count along the chain named. One block for each binder: values may come before it.

Target: T1, Human PD-L2 (human, UniProt Q9BQ51)
T1 sequence: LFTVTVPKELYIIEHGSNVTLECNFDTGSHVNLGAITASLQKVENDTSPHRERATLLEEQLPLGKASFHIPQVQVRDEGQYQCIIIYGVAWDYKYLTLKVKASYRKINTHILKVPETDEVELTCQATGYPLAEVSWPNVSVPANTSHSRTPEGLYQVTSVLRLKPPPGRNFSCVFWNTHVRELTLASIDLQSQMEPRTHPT
Test: SPR

Kd: 2.95 nM
B1: sPD-1V1 Fc (Fc fusion)
chain: LDSPDRPWNPPTFSPALLVVTEGDNATFTCSFSNTSESFVLNWYRMSPSNQTDKLAAFPEDRGQLGQDCRFRVTQLPNGRDFHMSVVRARRSDSGTYLCSAIVLAPKIQIKESLRVELRVTERRAEVPTAHPSPSPRPAGQFQTLV

Kd: 3.4 nM
B2: sPD-1V2 Fc (Fc fusion)
chain: B1 chain with S92N
